Patent publication US20150299281A1 (ZEALAND PHARMA A S, published 2015)
Numbered stars: 1 amine (or outer) side, 2 acyl side, 3 side chain; on linkers, the order of the positions; unused ones are H or OH. Square brackets hold non-standard residues; d marks the D form. Side chains are listed from the residue outwards. * marks the point of attachment. C16 diacid = O=C(O)CCCCCCCCCCCCCCC(=O)*; γGlu = O=C(O)[C@H](CCC(=O)[*:2])N[*:1]; 1Nal = N[C@@H](Cc1cccc2ccccc12)C(=O)O; Palmitoyl = CCCCCCCCCCCCCCCC(=O)*; Aib = CC(C)(N)C(=O)O

B1: Compound 24 (peptide)
peptide: H-Y[Aib]EGTFTSDYSIYLDKKAQRAFVNWLL[Aib]K-NH2
SMILES: CC[C@H](C)[C@H](NC(=O)[C@H](CO)NC(=O)[C@H](Cc1ccc(O)cc1)NC(=O)[C@H](CC(=O)O)NC(=O)[C@H](CO)NC(=O)[C@@H](NC(=O)[C@H](Cc1ccccc1)NC(=O)[C@@H](NC(=O)CNC(=O)[C@H](CCC(=O)O)NC(=O)C(C)(C)NC(=O)[C@@H](N)Cc1ccc(O)cc1)[C@@H](C)O)[C@@H](C)O)C(=O)N[C@@H](Cc1ccc(O)cc1)C(=O)N[C@@H](CC(C)C)C(=O)N[C@@H](CC(=O)O)C(=O)N[C@@H](CCCCN)C(=O)N[C@@H](CCCCN)C(=O)N[C@@H](C)C(=O)N[C@@H](CCC(N)=O)C(=O)N[C@@H](CCCNC(=N)N)C(=O)N[C@@H](C)C(=O)N[C@@H](Cc1ccccc1)C(=O)N[C@H](C(=O)N[C@@H](CC(N)=O)C(=O)N[C@@H](Cc1c[nH]c2ccccc12)C(=O)N[C@@H](CC(C)C)C(=O)N[C@@H](CC(C)C)C(=O)NC(C)(C)C(=O)N[C@@H](CCCCN)C(N)=O)C(C)C
B2: Compound 25 (peptide)
peptide: H-Y[Aib]EGTFTSDYSIYLDKKAQRAFVNWLLA[Aib]KYG[1Nal]LDF-NH2
SMILES: CC[C@H](C)[C@H](NC(=O)[C@H](CO)NC(=O)[C@H](Cc1ccc(O)cc1)NC(=O)[C@H](CC(=O)O)NC(=O)[C@H](CO)NC(=O)[C@@H](NC(=O)[C@H](Cc1ccccc1)NC(=O)[C@@H](NC(=O)CNC(=O)[C@H](CCC(=O)O)NC(=O)C(C)(C)NC(=O)[C@@H](N)Cc1ccc(O)cc1)[C@@H](C)O)[C@@H](C)O)C(=O)N[C@@H](Cc1ccc(O)cc1)C(=O)N[C@@H](CC(C)C)C(=O)N[C@@H](CC(=O)O)C(=O)N[C@@H](CCCCN)C(=O)N[C@@H](CCCCN)C(=O)N[C@@H](C)C(=O)N[C@@H](CCC(N)=O)C(=O)N[C@@H](CCCNC(=N)N)C(=O)N[C@@H](C)C(=O)N[C@@H](Cc1ccccc1)C(=O)N[C@H](C(=O)N[C@@H](CC(N)=O)C(=O)N[C@@H](Cc1c[nH]c2ccccc12)C(=O)N[C@@H](CC(C)C)C(=O)N[C@@H](CC(C)C)C(=O)N[C@@H](C)C(=O)NC(C)(C)C(=O)N[C@@H](CCCCN)C(=O)N[C@@H](Cc1ccc(O)cc1)C(=O)NCC(=O)N[C@@H](Cc1cccc2ccccc12)C(=O)N[C@@H](CC(C)C)C(=O)N[C@@H](CC(=O)O)C(=O)N[C@@H](Cc1ccccc1)C(N)=O)C(C)C
B3: Compound 26 (peptide)
peptide: H-Y[Aib]EGTFTSDYSIYLDKKAQRAFVNWLLAYG[1Nal]LDF-NH2
SMILES: CC[C@H](C)[C@H](NC(=O)[C@H](CO)NC(=O)[C@H](Cc1ccc(O)cc1)NC(=O)[C@H](CC(=O)O)NC(=O)[C@H](CO)NC(=O)[C@@H](NC(=O)[C@H](Cc1ccccc1)NC(=O)[C@@H](NC(=O)CNC(=O)[C@H](CCC(=O)O)NC(=O)C(C)(C)NC(=O)[C@@H](N)Cc1ccc(O)cc1)[C@@H](C)O)[C@@H](C)O)C(=O)N[C@@H](Cc1ccc(O)cc1)C(=O)N[C@@H](CC(C)C)C(=O)N[C@@H](CC(=O)O)C(=O)N[C@@H](CCCCN)C(=O)N[C@@H](CCCCN)C(=O)N[C@@H](C)C(=O)N[C@@H](CCC(N)=O)C(=O)N[C@@H](CCCNC(=N)N)C(=O)N[C@@H](C)C(=O)N[C@@H](Cc1ccccc1)C(=O)N[C@H](C(=O)N[C@@H](CC(N)=O)C(=O)N[C@@H](Cc1c[nH]c2ccccc12)C(=O)N[C@@H](CC(C)C)C(=O)N[C@@H](CC(C)C)C(=O)N[C@@H](C)C(=O)N[C@@H](Cc1ccc(O)cc1)C(=O)NCC(=O)N[C@@H](Cc1cccc2ccccc12)C(=O)N[C@@H](CC(C)C)C(=O)N[C@@H](CC(=O)O)C(=O)N[C@@H](Cc1ccccc1)C(N)=O)C(C)C
B4: Compound 27 (peptide)
peptide: H-Y[Aib]EGTFTSDYSIYLDKKAEKAFVNWLLA[Aib]K-NH2
SMILES: CC[C@H](C)[C@H](NC(=O)[C@H](CO)NC(=O)[C@H](Cc1ccc(O)cc1)NC(=O)[C@H](CC(=O)O)NC(=O)[C@H](CO)NC(=O)[C@@H](NC(=O)[C@H](Cc1ccccc1)NC(=O)[C@@H](NC(=O)CNC(=O)[C@H](CCC(=O)O)NC(=O)C(C)(C)NC(=O)[C@@H](N)Cc1ccc(O)cc1)[C@@H](C)O)[C@@H](C)O)C(=O)N[C@@H](Cc1ccc(O)cc1)C(=O)N[C@@H](CC(C)C)C(=O)N[C@@H](CC(=O)O)C(=O)N[C@@H](CCCCN)C(=O)N[C@@H](CCCCN)C(=O)N[C@@H](C)C(=O)N[C@@H](CCC(=O)O)C(=O)N[C@@H](CCCCN)C(=O)N[C@@H](C)C(=O)N[C@@H](Cc1ccccc1)C(=O)N[C@H](C(=O)N[C@@H](CC(N)=O)C(=O)N[C@@H](Cc1c[nH]c2ccccc12)C(=O)N[C@@H](CC(C)C)C(=O)N[C@@H](CC(C)C)C(=O)N[C@@H](C)C(=O)NC(C)(C)C(=O)N[C@@H](CCCCN)C(N)=O)C(C)C
B5: Compound 3 (peptide)
peptide: H-Y[Aib]EGTFTSDYSIALDKIAQRAFVNWLVA[Aib]K-NH2
SMILES: CC[C@H](C)[C@H](NC(=O)[C@H](CCCCN)NC(=O)[C@H](CC(=O)O)NC(=O)[C@H](CC(C)C)NC(=O)[C@H](C)NC(=O)[C@@H](NC(=O)[C@H](CO)NC(=O)[C@H](Cc1ccc(O)cc1)NC(=O)[C@H](CC(=O)O)NC(=O)[C@H](CO)NC(=O)[C@@H](NC(=O)[C@H](Cc1ccccc1)NC(=O)[C@@H](NC(=O)CNC(=O)[C@H](CCC(=O)O)NC(=O)C(C)(C)NC(=O)[C@@H](N)Cc1ccc(O)cc1)[C@@H](C)O)[C@@H](C)O)[C@@H](C)CC)C(=O)N[C@@H](C)C(=O)N[C@@H](CCC(N)=O)C(=O)N[C@@H](CCCNC(=N)N)C(=O)N[C@@H](C)C(=O)N[C@@H](Cc1ccccc1)C(=O)N[C@H](C(=O)N[C@@H](CC(N)=O)C(=O)N[C@@H](Cc1c[nH]c2ccccc12)C(=O)N[C@@H](CC(C)C)C(=O)N[C@H](C(=O)N[C@@H](C)C(=O)NC(C)(C)C(=O)N[C@@H](CCCCN)C(N)=O)C(C)C)C(C)C
B6: Compound 31 (peptide)
peptide: H-Y[Aib]EGTFTSDYSIYLDKK([γGlu-C16 diacid])AQRAFVNWLLA[Aib]K-NH2
SMILES: CC[C@H](C)[C@H](NC(=O)[C@H](CO)NC(=O)[C@H](Cc1ccc(O)cc1)NC(=O)[C@H](CC(=O)O)NC(=O)[C@H](CO)NC(=O)[C@@H](NC(=O)[C@H](Cc1ccccc1)NC(=O)[C@@H](NC(=O)CNC(=O)[C@H](CCC(=O)O)NC(=O)C(C)(C)NC(=O)[C@@H](N)Cc1ccc(O)cc1)[C@@H](C)O)[C@@H](C)O)C(=O)N[C@@H](Cc1ccc(O)cc1)C(=O)N[C@@H](CC(C)C)C(=O)N[C@@H](CC(=O)O)C(=O)N[C@@H](CCCCN)C(=O)N[C@@H](CCCCNC(=O)CC[C@H](NC(=O)CCCCCCCCCCCCCCC(=O)O)C(=O)O)C(=O)N[C@@H](C)C(=O)N[C@@H](CCC(N)=O)C(=O)N[C@@H](CCCNC(=N)N)C(=O)N[C@@H](C)C(=O)N[C@@H](Cc1ccccc1)C(=O)N[C@H](C(=O)N[C@@H](CC(N)=O)C(=O)N[C@@H](Cc1c[nH]c2ccccc12)C(=O)N[C@@H](CC(C)C)C(=O)N[C@@H](CC(C)C)C(=O)N[C@@H](C)C(=O)NC(C)(C)C(=O)N[C@@H](CCCCN)C(N)=O)C(C)C
B7: Compound 32 (peptide)
peptide: H-Y[Aib]EGTFTSDYSI[Aib]LDKK([γGlu-Palmitoyl])AQRAFVEWLLAQGPSSGAPPPS-NH2
SMILES: CCCCCCCCCCCCCCCC(=O)N[C@@H](CCC(=O)NCCCC[C@H](NC(=O)[C@H](CCCCN)NC(=O)[C@H](CC(=O)O)NC(=O)[C@H](CC(C)C)NC(=O)C(C)(C)NC(=O)[C@@H](NC(=O)[C@H](CO)NC(=O)[C@H](Cc1ccc(O)cc1)NC(=O)[C@H](CC(=O)O)NC(=O)[C@H](CO)NC(=O)[C@@H](NC(=O)[C@H](Cc1ccccc1)NC(=O)[C@@H](NC(=O)CNC(=O)[C@H](CCC(=O)O)NC(=O)C(C)(C)NC(=O)[C@@H](N)Cc1ccc(O)cc1)[C@@H](C)O)[C@@H](C)O)[C@@H](C)CC)C(=O)N[C@@H](C)C(=O)N[C@@H](CCC(N)=O)C(=O)N[C@@H](CCCNC(=N)N)C(=O)N[C@@H](C)C(=O)N[C@@H](Cc1ccccc1)C(=O)N[C@H](C(=O)N[C@@H](CCC(=O)O)C(=O)N[C@@H](Cc1c[nH]c2ccccc12)C(=O)N[C@@H](CC(C)C)C(=O)N[C@@H](CC(C)C)C(=O)N[C@@H](C)C(=O)N[C@@H](CCC(N)=O)C(=O)NCC(=O)N1CCC[C@H]1C(=O)N[C@@H](CO)C(=O)N[C@@H](CO)C(=O)NCC(=O)N[C@@H](C)C(=O)N1CCC[C@H]1C(=O)N1CCC[C@H]1C(=O)N1CCC[C@H]1C(=O)N[C@@H](CO)C(N)=O)C(C)C)C(=O)O

These binders were tested against T1, human GIP receptor (human, UniProt P48546 22-466) (assay: cell-based or functional assay).
T1 sequence (looked up): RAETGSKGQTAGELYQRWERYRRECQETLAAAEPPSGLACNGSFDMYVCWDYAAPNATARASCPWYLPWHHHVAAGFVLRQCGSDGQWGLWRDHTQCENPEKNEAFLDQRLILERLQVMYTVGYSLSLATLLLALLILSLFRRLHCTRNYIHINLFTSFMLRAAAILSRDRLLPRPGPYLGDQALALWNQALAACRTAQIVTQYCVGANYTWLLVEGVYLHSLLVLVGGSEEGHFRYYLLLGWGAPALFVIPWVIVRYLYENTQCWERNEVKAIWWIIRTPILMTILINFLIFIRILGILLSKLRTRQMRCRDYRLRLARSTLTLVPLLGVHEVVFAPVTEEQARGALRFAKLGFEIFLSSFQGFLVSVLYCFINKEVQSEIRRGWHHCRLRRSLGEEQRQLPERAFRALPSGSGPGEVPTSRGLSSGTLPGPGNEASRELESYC

B1 and B2 are within 1.5-fold of each other in “EC50, cAMP induction in HEK293 cells expressing human GIP R” value: 0.096 nM for the first, 0.12 nM for the second.

First: B3
Second: B4
The “EC50, cAMP induction in HEK293 cells expressing human GIP R” value of the first is 2.7-fold higher: 0.8 nM for the first, 0.3 nM for the second.

B5 and B6 are within 1.5-fold of each other in “EC50, cAMP induction in HEK293 cells expressing human GIP R” value: 0.015 nM for the first, 0.022 nM for the second.

With B7 the “EC50, cAMP induction in HEK293 cells expressing human GIP R” value was 0.012 nM.

These binders were tested against human GLP-1 receptor (human, UniProt P43220 24-463) (assay: cell-based or functional assay).

Compared with B1, B2 is 4.8-fold higher in “EC50, cAMP induction in HEK293 cells expressing human GLP-1 R” value: 0.0085 nM for the first, 0.041 nM for the second.

Compared with B3, B4 is 5.3-fold lower in “EC50, cAMP induction in HEK293 cells expressing human GLP-1 R” value: 0.39 nM for the first, 0.074 nM for the second.

B5 and B6 are within 1.5-fold of each other in “EC50, cAMP induction in HEK293 cells expressing human GLP-1 R” value: 0.022 nM for the first, 0.02 nM for the second.

With B7 the “EC50, cAMP induction in HEK293 cells expressing human GLP-1 R” value was 0.018 nM.
